Molecular target: MIYEI
Assay: crystal structure

- stoichiometry N: 2
Substance: MIYEI

Reference: paper doi:10.1101/2025.03.21.644400
